# Source: patent US20250327097A1, “ORGANISMS PRODUCING LESS CROTONIC ACID” (Global Bioenergies, priority 2021, published 2025)
# Where a chain is given by its changes, count along the chain named. Numbers in names are those of the source.
# B1: N285M-N287T-S322T-N388M-K394R-C430N-L432F-L434W-S436N-N460G-dG462 (protein)
# chain: MFLKSLREQINLLKRQGDLRIINRPVDSYLEAAAIIRRSTETKAPVPLMTNIKGYPGCSIVGGLAALSSNPEYPLSRVAMSLGLSTTASAQSIVQYLIDGLKKTPYLPVEIDSNSAPCKQNILRGEDASLAHFPIPQVHQHDGNRYVNTWGVFIVESPDGQWCNWSIQRVQYLNDRQMIALVFPSQHISDIWEEWVKIGKPMPYALVQGCEPIVPYIAGLPLLERNVNEAEYIGALYGKGIEVVKCETHDLRVPASSEVVIEGYFAITREGVEGPFGEFAGYIPMETSLQPILSITAISWQDDPIWPVVAEGKPVDEYHTCTGIGDAAAIQNVLLTANLPVSFVWVPLYSACHLMIVSINRHWRQTHPDLTSEQLTKKVGDVIHQTRMSIKLPRIVVLDDDVDPADTESLLWALATRIHPERKRYFYESNIFPWLNCYSEEERHNRKGKRVIIDALLPEGHGAISSFDYAYPDDIKQRVLMHWETDFSHD
# B2: N285M-N287T-S322T-N388M-K394R-C430N-L432F-L434W-S436N-dG462-Y469S (protein)
# chain: B1 chain with G460N, Y469S
# B3: N285M-N287T-S322T-N388M-K394R-C430N-L432F-L434W-S436N-dA463-S465V (protein)
# chain: B1 chain with G460N, S465V
# B4: N285M-N287T-S322T-N388M-K394R-C430N-L432F-L434W-S436N-dG462-A463V (protein)
# chain: B1 chain with G460N, A463V
# B5: N388M-K394H-C430S-L432F-L434W-S436N (protein)
# chain: B1 chain with M285N, T287N, T322S, R394H, N430S, G460N
# B6: N285M-N287T-S322T-N388M-K394R-C430N-L432F-L434W-S436N-dA463-S465I (protein)
# chain: B1 chain with G460N, S465I
# B7: N285M-N287T-S322T-N388M-K394R-C430N-L432F-L434W-S436N-dG462-A470S (protein)
# chain: B1 chain with G460N, A470S
# B8: N285M-N287T-S322T-N388M-K394R-C430N-L432F-L434W-S436N-dA463-A470S (protein)
# chain: B1 chain with G460N, A470S
# B9: N285M-N287T-S322T-N388M-K394R-C430N-L432F-L434W-S436N-dG462-A463M (protein)
# chain: B1 chain with G460N, A463M
# B10: N285M-N287T-S322T-N388M-K394R-C430N-L432F-L434W-S436N-dG462-Y469T (protein)
# chain: B1 chain with G460N, Y469T
# B11: N285M-N287T-S322T-N388M-K394R-C430N-L432F-L434W-S436N-dG462-Y469N (protein)
# chain: B1 chain with G460N, Y469N
# B12: N285M-N287T-S322T-N388M-K394R-C430N-L432F-L434W-S436N-dG462-A463F (protein)
# chain: B1 chain with G460N, A463F
# Tested on: 3-methylcrotonic acid
# Type: biochemical, Yersinia frederiksenii
# Design: key: “+” representing a low increase in activity; “++++” representing a high increase in activity
row,Molecule,Activity relative to WT
1,B1,++++
2,B2,++++
3,B3,++++
4,B4,++++
5,B5,+
6,B6,++++
7,B7,++++
8,B8,++++
9,B9,++++
10,B10,++++
11,B11,++++
12,B12,++++
